Here are results for three molecules from patent US20200339702A1 (ULTRAHUMAN THIRTEEN, published 2020).

Experiment [1] concerns the target T1, human ERBB3 His tagged, monomeric (human, UniProt P21860 20-643, biotinylated in the Alphascreen assays (sites not given)).
T1 construct: Used unbiotinylated as Biacore analyte and biotinylated in Alphascreen; treated as one molecule; also called human ERBB3-His (Acrobiosystems); biotinylated monomeric human ERBB3
The experiment is described as follows: SPR (Biacore). Here is the method: (§1) Affinity (KD) of purified IgGs was determined via SPR with antigen in-solution on a Biacore® 3000 (GE). A mouse anti-human antibody (CH1 specific) was immobilized on a CM5 Sensor Chip to a level of 2000 RU in acetate buffer at pH 4.5 using amine coupling following the Wizard instructions for two channels. One channel was used for background signal correction. The standard running buffer HBS-EP pH 7.4 was used. Regeneration was performed with a single injection of 10 μl of 10 mM Glycine at pH 1.5 at […]. IgG samples were injected for 2 minutes at 50 nM at 30 μl/min followed by an off-rate of 60 seconds. The monomeric antigen (human ERBB3 His tagged or rhesus monkey ERBB3 His tag) was injected in two fold serial dilutions from 3 nM down to 0.2 nM, for 2 minutes at 30 μl/min followed by an off-rate of 300 seconds. The obtained sensorgrams were analysed using the Biacore® 3000 evaluation (BlAevaluation) software. The KD was calculated by simultaneous fitting of the association and dissociation phases to a 1:1 Langmuir binding model.
A general note: In SPR one partner is held on a chip, and binding of the other changes the refractive index at the surface.

Experiment [2] has as its target T2, rhesus monkey ERBB3 His tag, monomeric (rhesus monkey (Macaca mulatta), UniProt P21860 20-643 (human entry), limits assumed).
T2 chain: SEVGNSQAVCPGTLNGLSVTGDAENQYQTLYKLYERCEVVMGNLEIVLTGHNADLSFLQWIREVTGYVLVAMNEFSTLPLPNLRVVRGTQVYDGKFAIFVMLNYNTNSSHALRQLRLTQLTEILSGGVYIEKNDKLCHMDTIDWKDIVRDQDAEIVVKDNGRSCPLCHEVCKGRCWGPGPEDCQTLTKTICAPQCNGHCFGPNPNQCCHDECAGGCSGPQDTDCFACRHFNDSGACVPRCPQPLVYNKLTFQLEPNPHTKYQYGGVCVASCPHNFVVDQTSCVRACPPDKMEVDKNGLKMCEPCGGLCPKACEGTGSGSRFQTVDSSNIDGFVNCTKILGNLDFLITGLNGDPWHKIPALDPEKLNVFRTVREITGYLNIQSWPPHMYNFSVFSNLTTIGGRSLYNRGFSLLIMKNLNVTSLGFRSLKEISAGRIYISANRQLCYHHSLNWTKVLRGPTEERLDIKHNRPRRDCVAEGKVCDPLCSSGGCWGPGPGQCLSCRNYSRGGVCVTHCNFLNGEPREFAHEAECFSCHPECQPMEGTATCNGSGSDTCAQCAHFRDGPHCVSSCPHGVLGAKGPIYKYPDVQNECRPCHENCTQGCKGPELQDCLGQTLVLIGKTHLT
Briefly: SPR (Biacore). How it is done:
as §1

Experiment [3] concerns the target T3, human ERBB3 on transiently transfected HEK-293 cells (human, UniProt P21860 20-1342).
T3 construct: also called human ERBB3+ HEK-293 cells
Briefly: flow cytometry, human ERBB3-transfected HEK-293. Summed up: (§2)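 Purified IgGs in IgG1null format were titrated threefold from 500 nM to 0.008 nM on HEK-293 cells transiently transfected with full-length human or rhesus ERBB3, with wild-type HEK-293 as comparison. Binding was detected with FITC anti-human IgG and read as mean fluorescence intensity of 10000 cells by flow cytometry.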
A general note: In flow cytometry, cells or beads pass a laser one at a time.

The target of experiment [4] is T4, rhesus ERBB3 on transiently transfected HEK-293 cells (rhesus monkey (Macaca mulatta), UniProt P21860 20-1342 (human entry)).
T4 construct: also called rhesus ERBB3+ HEK-293 cells
T4 chain: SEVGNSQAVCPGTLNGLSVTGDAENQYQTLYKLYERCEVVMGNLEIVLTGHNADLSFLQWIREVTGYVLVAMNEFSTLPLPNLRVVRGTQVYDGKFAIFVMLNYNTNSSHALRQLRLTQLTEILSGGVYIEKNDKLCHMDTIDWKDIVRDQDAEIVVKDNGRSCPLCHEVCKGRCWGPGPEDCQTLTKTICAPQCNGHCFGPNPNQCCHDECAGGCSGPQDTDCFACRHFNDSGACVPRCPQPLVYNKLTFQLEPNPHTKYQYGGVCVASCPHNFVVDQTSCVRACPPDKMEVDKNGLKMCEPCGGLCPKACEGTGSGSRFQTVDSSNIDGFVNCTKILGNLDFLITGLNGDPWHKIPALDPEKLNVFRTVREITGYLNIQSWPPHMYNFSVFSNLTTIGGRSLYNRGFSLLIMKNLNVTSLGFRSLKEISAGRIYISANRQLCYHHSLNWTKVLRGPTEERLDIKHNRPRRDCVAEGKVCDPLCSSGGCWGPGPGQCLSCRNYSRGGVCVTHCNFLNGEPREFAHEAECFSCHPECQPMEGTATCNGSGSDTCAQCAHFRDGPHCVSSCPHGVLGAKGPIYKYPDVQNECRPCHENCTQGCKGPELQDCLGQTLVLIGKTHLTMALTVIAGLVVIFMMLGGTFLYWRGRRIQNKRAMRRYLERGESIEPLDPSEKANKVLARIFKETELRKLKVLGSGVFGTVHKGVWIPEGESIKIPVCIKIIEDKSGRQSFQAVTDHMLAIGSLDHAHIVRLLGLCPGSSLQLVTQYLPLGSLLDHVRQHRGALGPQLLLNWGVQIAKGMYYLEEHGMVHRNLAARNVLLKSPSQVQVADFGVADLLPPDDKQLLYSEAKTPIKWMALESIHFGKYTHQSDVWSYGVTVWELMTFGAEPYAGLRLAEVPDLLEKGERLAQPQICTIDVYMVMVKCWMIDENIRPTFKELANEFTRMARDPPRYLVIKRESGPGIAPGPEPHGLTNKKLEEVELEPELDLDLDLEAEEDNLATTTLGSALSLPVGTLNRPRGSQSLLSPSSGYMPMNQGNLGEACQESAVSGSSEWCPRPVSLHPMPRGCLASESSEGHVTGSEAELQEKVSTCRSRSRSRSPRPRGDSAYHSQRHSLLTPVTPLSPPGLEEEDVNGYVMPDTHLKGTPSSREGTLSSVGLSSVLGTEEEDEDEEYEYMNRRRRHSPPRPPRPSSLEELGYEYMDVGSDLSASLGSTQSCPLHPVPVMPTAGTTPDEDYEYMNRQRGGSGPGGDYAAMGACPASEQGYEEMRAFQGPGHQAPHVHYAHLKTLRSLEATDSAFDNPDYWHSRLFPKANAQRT
The experiment is described as follows: flow cytometry, rhesus ERBB3-transfected HEK-293. Summed up:
as §2

For experiment [5], the target named is T1, human ERBB3 His tagged, monomeric. Briefly: SPR (Biacore), captured IgG, monomeric ERBB3-His analyte.
Experiment [6] concerns the target T2, rhesus monkey ERBB3 His tag, monomeric. The description is as above.
A further experiment has as its target T5, human insulin (human, UniProt P01308 25-54; P01308 90-110, limits assumed).
T5 construct: Off-target protein in the development risk (polyreactivity) ELISA
The experiment is described as follows: polyreactivity ELISA on human insulin, score. A general note: In an ELISA, binding on a coated surface is turned into a signal by an enzyme label.

Experiment [7] addresses T1, human ERBB3 His tagged, monomeric. Briefly: Alphascreen competition, solution phase; competitor h24C05 IgG1.
Experiment [8] deals with T6, human ERBB3 human Fc tagged recombinant protein (human, UniProt P21860 20-643).
T6 construct: also called human ERBB3-Fc; huERBB3
Briefly: direct binding ELISA on coated human ERBB3-Fc, IgG1 titrated. How it is done:
(§3) Binding and cross-reactivity of the lead panel to the recombinant proteins was initially assessed by binding ELISA. The human ERBB3 human Fc tagged recombinant protein and the rhesus monkey ERBB3 human Fc tagged recombinant protein were coated to the surface of MaxiSorp™ flat-bottom 96 well plate at 1 μg/ml. The purified IgG samples were titrated in two fold serial dilutions starting from 500 nM to 0.008 nM and allowed to bind to the coated antigens. The Fabs were detected using mouse anti-c-myc antibody followed by donkey anti-mouse IgG conjugated to horseradish peroxidase. The IgGs were detected using the mouse anti-human IgG conjugated to horseradish peroxidase. Binding signals were visualized with 3,3′,5,5′-Tetramethylbenzidine Substrate Solution (TMB) and the absorbance measured at 450 nm.

In experiment [9] the target is T7, rhesus monkey ERBB3 human Fc tagged recombinant protein (rhesus monkey (Macaca mulatta), UniProt P21860 20-643 (human entry), limits assumed).
T7 construct: also called rhesus ERBB3-Fc; rhERBB3
T7 chain: T2 chain
The experiment is described as follows: direct binding ELISA on coated rhesus ERBB3-Fc, IgG1 titrated. How it is done: as §3

Experiment [10] concerns the target T4, rhesus ERBB3 on transiently transfected …. Briefly: flow cytometry, rhesus ERBB3-transfected HEK-293 cells, IgG1 titrated. Here is the method: Purified IgGs were tested in FACs for binding to human and rhesus monkey ERBB3 expressed on transiently transfected HEK-293 cells and HEK-293 wild-type cells. The IgG samples were titrated in three-fold serial dilutions starting at 500 nM to 0.008 nM. Binding of IgGs was detected with a mouse anti-human IgG conjugated to FITC. Results were analyzed by examining the Mean Fluorescence Intensity (MFI) of 10000 cells per sample in the BL-1 channel detector of a flow cytometer (Attune™ NxT Acoustic Focusing Cytometer, Invitrogen/ThermoFisher Scientific).

In experiment [11] the target is T1, human ERBB3 His tagged, monomeric. The experiment is described as follows: Alphascreen competition in solution, competitor h24C05 IgG1null, biotinylated human ERBB3-His. How it is done:
The AlphaScreen assay (Perkin Elmer) was performed in a 25 μl final volume in 384-well white microtiter plates (Greiner). The reaction buffer contained 1×PBS pH 7.3 (Oxoid, Cat. nr. BR0014G) and 0.05% (v/v) Tween® 20 (Sigma, Cat. nr. P9416). Purified IgG samples were titrated in three fold serial dilutions starting at 100 nM final concentration and incubated with biotinylated human ERBB3-His (Acrobiosystems) at 1 nM final concentration for 20 minutes at room temperature. The parental IgG and the anti-human IgG1 Acceptor beads at were added and the mix was incubated for 1 hour at room temperature. Followed by addition of the Streptavidin Donor beads and incubation for 30 minutes at room temperature. The emission of light was measured in the EnVision multilabel plate reader (Perkin Elmer) and analysed using the EnVision manager software. Values were reported as Counts Per Second (CPS) and corrected for crosstalk.

Substitutions are numbered along the chain they refer to. Numbers in names are those of the source.

T5 sequence (P01308 25-54 limits assumed, chain 1 of 2): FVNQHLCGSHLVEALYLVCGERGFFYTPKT
T5 sequence (P01308 90-110 limits assumed, chain 2 of 2): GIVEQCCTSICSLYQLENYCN

B1: MH3 IgG1null (antibody, V domains shown)
VH: QVQLVESGGGLVKPGGSLRLSCAASGFTFSDYSMSWIRQAPGKGLEWVSTISDSGSTIYYADSVKGRFTISRDNAKNSLYLQMNSLRAEDTAVYYCAREWGDYDGFDFWGQGTLVTVSS
VL: DIQMTQSPSSLSASVGDRVTITCRASQSISSYLSWYQQKPGKAPKLLIYAASSLQSGVPSRFSGSGSGTDFTLTISSLQPEDFATYYCLQYDSTPLTFGGGTKVEIK
notes: Designer (Maximally Humanized) clone; Human IgG1null and human Ckappa
By Kd is commonly meant a measure of binding affinity in units of concentration. The koff is the first-order rate constant of dissociation. Usually kon stands for a measure of how fast the partners come together. Turning to B1, the “fold reduction in binding affinity against clone MH2” value in experiment [1] and in experiment [2] was about 3 fold in each case. Besides, the “maximum MFI, fold over isotype control background” value (“maximum MFI, fold” for short) in experiment [3] and in experiment [4] was over 20 fold each time. The values for the dissociation constant Kd in experiment [5] and in [6] were 0.85 nM and 0.63 nM, respectively. The koff in [5] was determined as 0.0065 s⁻¹; in experiment [6] it was 0.011 s⁻¹. Moreover, the on-rate constant (kon) in experiment [5] stood at 7.6e+06 M⁻¹ s⁻¹; in [6], 1.8e+07 M⁻¹ s⁻¹.

B2: h24C05 IgG1 (antibody, V domains shown)
VH: B1 VH with S33A, S54G, S56T, T57Y, I58T, A61P, S63N, F108Y
VL: B1 VL with S28E, S31G, Y36F, L46S, S53T, Q55D, T94Y, L96Y
notes: Human IgG1 and human Ckappa; also called humanized 24C05
As usually defined, the IC50 is the point on the concentration scale where inhibition reaches its midpoint. The term EC50 (read off the curve) denotes the concentration at which the effect is half-maximal. As for B2, the binding result with human insulin was “no binding”. In experiment [7], the IC50 was determined as 1.25 nM. Moreover, the “EC50 (read off the curve)” value in experiment [8] was about 0.1 nM; in [9] it was about 0.1 nM; in experiment [10], about 0.2 nM.

B3: h24C05 IgG1null (antibody, V domains shown)
VH: B1 VH with S33A, S54G, S56T, T57Y, I58T, A61P, S63N, F108Y
VL: B1 VL with S28E, S31G, Y36F, L46S, S53T, Q55D, T94Y, L96Y
notes: Human IgG1null (L234A, L235A, G237A) and human Ckappa; also called humanized 24C05
As for B3, the “maximum MFI, fold” value in experiment [3] is over 20 fold. Also, in experiment [4], the “maximum MFI, fold” value is over 20 fold. Besides, in experiment [5], the affinity, expressed as Kd, was 0.039 nM; the koff is 0.00096 s⁻¹; the kon was 2.5e+07 M⁻¹ s⁻¹. In experiment [6], this molecule came in with an equilibrium dissociation constant (Kd) of 0.18 nM, a koff of 0.00074 s⁻¹ and a kon of 4.1e+06 M⁻¹ s⁻¹. The “IC50 (read off the curve)” value in experiment [11] was about 5 nM.
